Test results from patent US20220064282A1 (ZEDA BIOPHARMACEUTICALS, published 2022).
Numbering of substitutions follows the chain as printed. Blank lines part the entries; values can stand above or below the binder they belong to.

Legend:
IL-1β-his [1] = biological target: T1, IL-1β-his (human, UniProt P01584 117-269); assay: ELISA, IL-1β-his coated
T1 construct: also called IL1b-His; IL-1β-WT-His

IL-1β-his [2] = biological target: T1, IL-1β-his; assay: BLI (Fortebio Octet Qke), antibody immobilised on AR2G sensor, IL1β-his 1.56-100 nM, 1:1 fit
IL-1β-his [3] = biological target: T1, IL-1β-his; assay: ELISA on IL-1β-his (Example 11, method of Example 6.1); sample kept at 40 °C for 7 d; Mean, SD 0.001
IL-1β-his [4] = biological target: T1, IL-1β-his; assay: ELISA on IL-1β-his (Example 11, method of Example 6.1); sample kept at 40 °C for 28 d; Mean, SD 0.023
IL-1β-his [5] = biological target: T1, IL-1β-his; assay: ELISA, IL-1β-his coated, antibody titrated (Example 9, method of Example 6.1); Mean, SD 0.000; upper left table
IL-1β-his [6] = biological target: T1, IL-1β-his; assay: ELISA, IL-1β-his coated, antibody titrated (Example 9, method of Example 6.1); Mean, SD 0.019; lower left table
IL-1β-his [7] = biological target: T1, IL-1β-his; assay: ELISA, IL-1β-his coated, antibody titrated (Example 9, method of Example 6.1); Mean, SD 0.000; upper right table
IL-1β-his [8] = biological target: T1, IL-1β-his; assay: ELISA, IL-1β-his coated, antibody titrated (Example 9, method of Example 6.1); Mean, SD 0.002; lower right table
IL-1β-his-bio = biological target: T2, IL-1β-his-bio (human, UniProt P01584 117-269, biotinylated, sites not stated); assay: ELISA, IL-1β-his-bio captured on streptavidin plate
T2 construct: also called biotinylated IL1b-His

IL-1β-hFc [9] = biological target: T3, IL-1β-hFc (human); assay: competition ELISA, IL-1β-hFc coated, competitor IL1RI(1-332)-his at 0.04 µg/ml, anti-His detection
T3 construct: also called IL1b-TEV-hIgG1Fc

IL-1β-hFc [10] = biological target: T3, IL-1β-hFc; assay: competition ELISA by the method of Example 6.2, competitor IL1RI
[11] = biological target: T4, IL1β (antigen used as analyte in Biacore) (UniProt P01584 117-269, limits assumed); assay: SPR (Biacore), antibody captured on Protein A chip, antigen as analyte
T4 construct: also called the antigen

IL-1β-hFc [12] = biological target: T3, IL-1β-hFc; assay: competition ELISA, IL-1β-hFc coated, competitor IL1RI(1-332)-his, anti-His detection
IL-1β-hFc [13] = biological target: T3, IL-1β-hFc; assay: competition ELISA: IL-1β-hFc coated, antibody titrated, IL1RI (1-332)-his as the blocked receptor (Example 12, method of Example 6.2)

B1: humanized antibody 18H11 H1L1 (antibody, V domains shown)
VH: QVQLVQSGAEVVKPGASVKISCKASGYLFTGYYMHWVKQAPGKGLEWIGFISCYNGDTTYNQKFQGKATFTVDTSTNTAYMEFNSLTSEDTAVYYCSRSDYYGTSDYWGQGTTLTVSS
VL: EIVLTQSPATMSASPGERVTISCRASSSVSYMHWFQQKPGQAPRLWIYTTSTLATGVPARFSGSGSGTDYTLTISRMEPEDAATYYCQQRIIYPPTFGGGTKLEIKR
EC50 (IL-1β-his [1]): 0.046 nM | Kd (IL-1β-his [2]): 0.142 nM | EC50 (IL-1β-his [3]): 0.076 nM | EC50 (IL-1β-his [4]): 0.133 nM | EC50 (IL-1β-his [5]): 0.051 nM | EC50 (IL-1β-his [6]): 0.074 nM | EC50 (IL-1β-his [7]): 0.051 nM | EC50 (IL-1β-his [8]): 0.051 nM

B2: murine antibody KF021ZP4 9D5 (antibody, V domains shown)
VH: DVQLVESGGGLVQPGGSRKLSCAASGFTFSTFGMHWVRQAPEKGLEWVAYISSGSYTTYYADTVRGRFTISRDNPKNTLFLQMTSLRSEDTAMYYCARDDYDVSNYVMDYWGQGTSVTVSS
VL: DIVLTQSPASLAVSLGQRATISCRASESVEYYGTSLMQWYQQKPGQPPKLLIYAASNVESGVPARFTGSGSGTVFSLNIHPVEEDDIAMYFCQQSRKVPSLTFGAGTKLELK
notes: Mouse monoclonal antibody from hybridoma supernatant
EC50 (IL-1β-his-bio): 0.036 nM | EC50 (IL-1β-hFc [9]): 0.37 nM

More lines, in order of falling EC50 (IL-1β-his-bio), values ahead:

EC50 (IL-1β-his-bio): 0.726 nM | EC50 (IL-1β-hFc [9]): 0.892 nM
B3: murine antibody KF021ZP4 19E4 (antibody, V domains shown)
VH: B2 VH with T58I, N105Y, V107A
VL: B2 VL with T67S, V74D
notes: as for B2

EC50 (IL-1β-his-bio): 0.174 nM | EC50 (IL-1β-hFc [9]): 0.389 nM
B4: murine antibody KF021ZP4 18H11 (antibody, V domains shown)
VH: EVQLQQSGPELVKTGASVKISCKASGYLFTGYYMHWVKQSHGKSLEWIGFISCYNGDTTYNQKFKDKATFTVDTSSNTAYMQFNSLTSEDSAVYYCSRSDYYGTSDYWGQGTTLTVSS
VL: QIVLTQSPAIMSASPGEKVTITCSASSSVSYMHWFQQKPGTSPKLWIYTTSTLASGVPARFSGSGSGTSYSLTISRMEAEDAATYYCQQRIIYPPTFGGGTKLEIK
notes: as for B2

EC50 (IL-1β-his [1]): 0.169 nM | EC50 (IL-1β-his-bio): 0.062 nM | IC50 (IL-1β-hFc [10]): 0.03 nM | Kd [11]: 0.0616 nM | koff [11]: 0.000104 s⁻¹ | kon [11]: 1.69e+06 M⁻¹ s⁻¹ | EC50 (IL-1β-hFc [12]): 0.516 nM | Kd (IL-1β-his [2]): 0.179 nM | koff (IL-1β-his [2]): 0.000105 s⁻¹ | kon (IL-1β-his [2]): 589000 M⁻¹ s⁻¹ | EC50 (IL-1β-hFc [9]): 0.229 nM | IC50 (read off the curve) (IL-1β-hFc [13]): ~3 nM
B5: Positive control antibody PcAb (antibody, human IgG1, kappa, V domains shown)
VH: QVQLVESGGGVVQPGRSLRLSCAASGFTFSVYGMNWVRQAPGKGLEWVAIIWYDGDNQYYADSVKGRFTISRDNSKNTLYLQMNGLRAEDTAVYYCARDLRTGPFDYWGQGTLVTVSS
VL: EIVLTQSPDFQSVTPKEKVTITCRASQSIGSSLHWYQQKPDQSPKLLIKYASQSFSGVPSRFSGSGSGTDFTLTINSLEAEDAAAYYCHQSSSLPFTFGPGTKVDIKR
notes: also called KF021ZP4 PcAb; KF021ZP4 PCAb
